Legend:
[1] = molecular target: T1, Biotinylated SARS-CoV-2 S protein RBD with a C-terminal AviTag (SARS-CoV-2, UniProt P0DTC2 319-541); experiment: BLI
[2] = molecular target: T1, Biotinylated SARS-CoV-2 S protein RBD …; experiment: BLI; remark: listed apart in the source

B1: NIH-CoVnb-113 (VHH)
VHH: DVQLQESGGGLVQPGGSLRLSCAASGLTLDYYAIGWFRQAPGKEREGVSCISSSDGSTYYADSVKGRFTTSRDNAKNTVYLQMNSLKPEDTAVYYCAAVPSTYYSGTYYYTCHPGGMDYWGKGTLVTVSS
koff [1]: 0.000804 s⁻¹ | Kd [2]: 8.19 nM

B2: NIH-CoVnb-109 (VHH)
VHH: DVQLQESGGGLVQSGGSLRLSCAASGFTLDYYAIGWFRQAPGKEREGVSCITNSDGSTYYADSVKGRFTTSRDNAKNTVYLQMNSLKPEDTAVYYCASFPSTYYSGSYYYTCHPGGMDYWGKGTQVTVSS
koff [1]: 0.00188 s⁻¹ | Kd [2]: 58.5 nM

B3: NIH-CoVnb-108 (VHH)
VHH: DVQLQESGGGLVQPGGSLRLSCAASGFTLDYYAIGWFRQAPGKEREGVSCISNSGGSTYYADSVKGRFTTSRDNAKNTVYLQMNSLKPEDTAVYYCAAVPSTYYSGSYYYTCHPGGMDYWGKGTQVTVSS
koff [1]: 0.00109 s⁻¹ | Kd [2]: 26.6 nM

B4: NIH-CoVnb-103 (VHH)
VHH: DVQLQESGGGLVQPGGSLRLSCAASGLTLDYYTIGWFRQAPGKEREGVSCISSSDDSTYYADSVKGRFTISRDNAKNTVYLQMNSLKPEDTAVYYCATAPGTYYKGSYYPMCHYYGMDYWGKGTQVTVSS
koff [1]: 0.00286 s⁻¹ | Kd [2]: 9.43 nM

— publication PMC7755911 (2020)
